Source: PMC5389554 (Nucleic Acids Research, 2017)

What was measured:
non-reducing SDS-PAGE = target: the molecule itself; assay: non-reducing SDS-PAGE
cross-linking = target: the molecule itself; assay: cross-linking
[1] = target: the molecule itself; assay: non-reducing SDS-PAGE with immunoblot

B1: GST-CNBP (recombinant cellular nucleic acid-binding protein with GST tag) (natural protein, mouse, UniProt P53996 1-178, looked up)
chain: MSSNECFKCGRSGHWARECPTGGGRGRGMRSRGRGGFTSDRGFQFVSSSLPDICYRCGESGHLAKDCDLQEDEACYNCGRGGHIAKDCKEPKREREQCCYNCGKPGHLARDCDHADEQKCYSCGEFGHIQKDCTKVKCYRCGETGHVAINCSKTSEVNCYRCGESGHLARECTIEATA
For B1, the “stoichiometry N” value (non-reducing SDS-PAGE) was 2.

B2: endogenous CNBP (cellular nucleic acid-binding protein) (natural protein, mouse (endogenous in RAW 264.7), UniProt P53996 1-178, looked up)
chain: MSSNECFKCGRSGHWARECPTGGGRGRGMRSRGRGGFTSDRGFQFVSSSLPDICYRCGESGHLAKDCDLQEDEACYNCGRGGHIAKDCKEPKREREQCCYNCGKPGHLARDCDHADEQKCYSCGEFGHIQKDCTKVKCYRCGETGHVAINCSKTSEVNCYRCGESGHLARECTIEATA
For B2, the “stoichiometry N” value (cross-linking) was 2.

B3: CNBP-HA (wild type) (natural protein, mouse, UniProt P53996 1-178, looked up)
chain: MSSNECFKCGRSGHWARECPTGGGRGRGMRSRGRGGFTSDRGFQFVSSSLPDICYRCGESGHLAKDCDLQEDEACYNCGRGGHIAKDCKEPKREREQCCYNCGKPGHLARDCDHADEQKCYSCGEFGHIQKDCTKVKCYRCGETGHVAINCSKTSEVNCYRCGESGHLARECTIEATA
In the case of B3, the “stoichiometry N” value [1] is reported as 2.
